No end group written: not given here.
Experiments:
[1] = target: soluble IGF-1R (recombinant human IGF-1R extracellular domain, R&D Systems Cat. # 391-GR/CF) (human), P08069; assay: phage ELISA
[2] = target: T1, soluble human insulin receptor-immunoglobulin heavy chain chimera (sIR-Fc; Bass et al., 1996) (human), P06213; assay: phage ELISA
T1 chain: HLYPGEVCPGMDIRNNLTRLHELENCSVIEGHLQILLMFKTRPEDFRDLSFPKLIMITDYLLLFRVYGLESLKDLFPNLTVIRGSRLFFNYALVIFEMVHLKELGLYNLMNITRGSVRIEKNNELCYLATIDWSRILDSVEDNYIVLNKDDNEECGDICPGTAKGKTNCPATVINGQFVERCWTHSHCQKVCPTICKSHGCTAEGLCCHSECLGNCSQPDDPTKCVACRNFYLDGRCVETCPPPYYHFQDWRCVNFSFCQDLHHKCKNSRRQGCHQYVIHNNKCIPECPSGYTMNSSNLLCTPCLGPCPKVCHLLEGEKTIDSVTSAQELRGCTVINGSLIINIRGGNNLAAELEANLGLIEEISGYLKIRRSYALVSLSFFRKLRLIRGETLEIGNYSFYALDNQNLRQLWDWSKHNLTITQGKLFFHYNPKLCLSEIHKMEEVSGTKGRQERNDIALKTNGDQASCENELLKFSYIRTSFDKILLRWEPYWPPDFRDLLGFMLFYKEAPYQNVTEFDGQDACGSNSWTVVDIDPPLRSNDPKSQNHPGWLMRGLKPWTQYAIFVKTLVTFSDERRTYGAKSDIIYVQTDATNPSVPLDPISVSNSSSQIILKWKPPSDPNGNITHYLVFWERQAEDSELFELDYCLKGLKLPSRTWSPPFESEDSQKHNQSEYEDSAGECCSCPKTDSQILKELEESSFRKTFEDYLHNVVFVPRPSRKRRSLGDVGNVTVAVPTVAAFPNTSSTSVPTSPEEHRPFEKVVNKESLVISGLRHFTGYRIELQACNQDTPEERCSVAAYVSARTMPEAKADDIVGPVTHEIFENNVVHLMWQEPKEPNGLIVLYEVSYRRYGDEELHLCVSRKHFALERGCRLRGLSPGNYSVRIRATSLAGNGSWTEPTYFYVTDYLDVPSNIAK

[3] = target: His-tagged soluble recombinant human IGF-IR (srhIGF-1R-his) (human), P08069; assay: ALPHAScreen competition against b-hIGF-1 on srhIGF-1R-his
[4] = target: IGF-1R on cells (MCF-7, MiaPaCa, FDC-P2 cells expressing human IGF-1R) (human) (UniProt P08069); assay: cell-based or functional assay
[5] = target: soluble human insulin receptor-immunoglobulin heavy chain chimera (sIR-Fc; Bass et al., 1996) (human) (UniProt P06213); assay: phage ELISA

Binder | IGF-1R/IR ratio comparison [1] | ratio over background [1] | IR/IGF-1R ratio comparison [2] | ratio over background [2] | IC50 [3] | Cellular EC50 (M), FDC-P2 cell proliferation [4] | IR/IGF-1R ratio comparison [5] | ratio over background [5]
VVTPVNFYRALEALVRGXRLG (not fully specified; printed as VVTPVNFYRALEALVRG.RLG; X: residue not identified in the source) [20E2B-2-B11-IGFR] | 9.4 | 10.6 | 0.1 | 1.1 |  |  |  | 
RCGRWXAEMGAGDDPFYHKLSELVCG (not fully specified; X: residue not identified in the source; cysteine pairing not given here) [B6Hα-2-C4-IR] | 11 | 9.9 | 0.1 | 0.9 |  |  |  | 
CCLLCRFQQNFYDWFVCQGISRLRPL (modifications not checked) [H2CA-2-B4-IGFR] | 3.6 | 4.1 | 0.3 | 1.1 |  |  |  | 
WLDQERAWLWCEISGRGCLS (modifications not checked) [lig-D815] |  |  |  |  | 2200 nM |  |  | 
GIISQSCPESFYDWFAGQVSDPWWCW (peptide, from a related filing) [G33-lig] |  |  |  |  | 710 nM | 3e-06 M |  | 
SQAGSAFYAWFDQVLRTVHSA [20E2Bβ-4-G6-IR] |  |  |  |  |  |  | 0.3 | 1.9
CMMXDGFYAGLGCLLTAGEGR (not fully specified; printed as CMM.DGFYAGLGCLLTAGEGR; X: residue not identified in the source; cysteine pairing not given here) [20E2B-3-C11-IGFR] | 7.5 | 15.4 | 0.1 | 2.1 |  |  |  | 
